Laboratory results reported in PMC6168461, “Molecular architecture and regulation of BCL10-MALT1 filaments” (Nature Communications, 2018).

Experiments:
[1] = molecular target: human BCL10 (full length), GST-tag removed (human) (UniProt O95999); test: cryo-EM structure; helical filaments of BCL10 (full length)-MALT1 (T29-G722); complex at 1 mg/ml, PreScission protease overnight at 12 °C, filaments separated by SEC; core map at 4.9 Å, whole assembly at 5.9 Å
[2] = molecular target: the molecule itself; test: as above

Row | stoichiometry N [1] | Molecule | binding result [2]
1 | 1 | human MALT1 isoform B (T29-G722), in the filament sample after PreScission treatment (domain or fragment) | 
2 |  | human BCL10 (full length), GST-tag removed (natural protein, UniProt O95999 1-233, looked up, BCL10 (B cell lymphoma 10), human, full length; Forms helical filaments together with MALT1 (T29-G722); only residues 10-115 are modelled in the map; also called B cell lymphoma 10; BCL10 wt; not shown: GST, N-terminal, cleaved) MEPTAPSLTEEDLTEVKKDALENLRVYLCEKIIAERHFDHLRAKKILSREDTEEISCRTSSRKRAGKLLDYLQENPKGLDTLVESIRREKTQNFLIQKITDEVLKLRNIKLEHLKGLKCSSCEPFPDGATNNLSRSNSDESNFSEKLRASTVMYHPEGESSTTPFFSTNSSLNLPVLEVGRTENTIFSSTTLPRPGDPGAPPLPPDLQLEEEGTCANSSEMFLPLRSRTVSRQ | binds
